# Reference: article PMC6331586, “Rapid determination of quaternary protein structures in complex biological samples” (Nature Communications, 2019)
# B1: M1 protein (amino acids 42–484), recombinant (domain or fragment)
# chain: NGDGNPREVIEDLAANNPAIQNIRLRYENKDLKARLENAMEVAGRDFKRAEELEKAKQALEDQRKDLETKLKELQQDYDLAKESTSWDRQRLEKELEEKKEALELAIDQASRDYHRATALEKELEEKKKALELAIDQASQDYNRANVLEKELETITREQEINRNLLGNAKLELDQLSSEKEQLTIEKAKLEEEKQISDASRQSLRRDLDASREAKKQVEKDLANLTAELDKVKEDKQISDASRQGLRRDLDASREAKKQVEKDLANLTAELDKVKEEKQISDASRQGLRRDLDASREAKKQVEKALEEANSKLAALEKLNKELEESKKLTEKEKAELQAKLEAEAKALKEQLAKQAEELAKLRAGKASDSQTPDTKPGNKAVPGKGQAPQAGTKPNQNKAPMKETKRQLPSTGETANPFFTAAALTVMATAGVAAVVKRKEEN
# notes: source: E. coli BL21 (DE3), purified (fibrinogen column, Ni-coupled Imac Sepharose)
# Molecular target: human serum albumin (human, UniProt P02768 25-609)
# Test: cross-linking
# Details: both partners purified
binder,measurement,value
B1,binding result,binds
